As a reminder, the bioavailability is the share of a dose that reaches the circulation, judged against a reference dose that is usually intravenous.

Results on four molecules are retold here after patent publication US20110092448A1, “Peptide Conjugate for Oral Delivery of Hydrophilic Peptide Analgesics” (METABOLIC PHARMACEUTICALS LIMITED, priority 2005, published 2011).

Read-outs that look alike come from different tables or passages of the source.

For data set [1] the following is noted: cited from earlier work.
Data set [2] has as its system STZ diabetic Sprague-Dawley rats with neuropathic pain. As to conditions: rat, in vivo, po.
Data set [3] relates to blood calcium levels in normal CD-1 mice. As to the kind of experiment: Blood (serum) calcium levels in normal mice after EP-PTH. In kind it is in vivo, mouse. As to conditions: oral gavage 40, 200 or 400 μg/kg, 1 h. As to the method: (§1) EP-PTH was administered orally to normal mice and the anabolic action on blood calcium levels were measured. More specifically, after an initial blood sampling at time zero, groups of normal CD-1 mice were administered EP-PTH via either oral gavage (40 μg/kg, 200 μg/kg or 400 μg/kg) or subcutaneous injection (40 μg/kg) as described in Example 3. One hour after the administration of the EP-PTH and a second blood sample was taken. The serum calcium levels of blood samples were then assessed by an enzymatic method.
(§2) The person skilled in the art will understand that the method of estimating oral availability by identifying an oral dose response curve in a pharmacodynamic animal experiment and comparing with the parenterally administered dose response curve may be used in assessing the application of the invention to other parent peptides.

Assay in data set [4]: as above
The following applies: mouse, serum; CD-1 mice, oral vs subcutaneous; read-out: oral bioavailability based on pharmacodynamic measurements. In kind it is in vivo, mouse. As to the method: as §1, §2

On to “parathyroid hormone: hormone known to regulate levels of blood calcium; parent peptide of EP-PTH”, for which the oral bioavailability entry in data set [1] (reported) is on record as “about 0.3%”.
On to “AOD9604: AOD peptide derived from the C-terminal sequence of human growth hormone, earlier applications (YLRIVQCRSVEGSCGF)”, for which the oral bioavailability result in data set [1] (earlier applications PCT/AU98/00724, PCT/AU01/00354, PCT/AU00/01362) was “substantially orally bioavailable”.
Regarding “Tyr-Leu-Arg-Ile-Val-Gly-Cys-Cys-Ser-Asp-Pro-Arg-Cys-Asn-Tyr-Asp-His-Pro-Glu-Ile-Cys-NH2 [ACV3.2]”, the oral availability entry in data set [2] is given as “substantial oral availability”. The “analgesic effect vs vehicle group” value in data set [2] (1 mg/kg) was “significant difference”.
For the molecule `CC[C@H](C)[C@H](NC(=O)[C@H](CCC(=O)O)NC(=O)[C@H](CO)NC(=O)[C@@H](NC(=O)[C@H](CO)NC(=O)[C@H](CCC(N)=O)NC(=O)[C@@H](NC(=O)[C@@H](NC(=O)[C@H](CCCNC(=N)N)NC(=O)[C@@H](N)CC(C)C)[C@@H](C)CC)C(C)C)C(C)C)C(=O)N[C@@H](CCC(N)=O)C(=O)N[C@@H](CC(C)C)C(=O)N[C@@H](CCSC)C(=O)N[C@@H](Cc1c[nH]cn1)C(=O)N[C@@H](CC(N)=O)C(=O)N[C@@H](CC(C)C)C(=O)NCC(=O)N[C@@H](CCCCN)C(=O)N[C@@H](Cc1c[nH]cn1)C(=O)N[C@@H](CC(C)C)C(=O)N[C@@H](CC(N)=O)C(=O)N[C@@H](CO)C(=O)N[C@@H](CCSC)C(=O)N[C@@H](CCC(=O)O)C(=O)N[C@@H](CCCNC(=N)N)C(=O)N[C@H](C(=O)N[C@@H](CCC(=O)O)C(=O)N[C@@H](Cc1c[nH]c2ccccc12)C(=O)N[C@@H](CC(C)C)C(=O)N[C@@H](CCCNC(=N)N)C(=O)N[C@@H](CCCCN)C(=O)N[C@@H](CCCCN)C(=O)N[C@@H](CC(C)C)C(=O)N[C@@H](CCC(N)=O)C(=O)N[C@@H](CC(=O)O)C(=O)N[C@H](C(=O)N[C@@H](Cc1c[nH]cn1)C(=O)N[C@@H](CC(N)=O)C(=O)N[C@@H](Cc1ccccc1)C(=O)O)C(C)C)C(C)C` [EP-PTH], the “effect on blood calcium levels compared to vehicle control” value in data set [3] was “dose-dependent effect”. For the same molecule, the bioavailability in data set [4] was approximately 10%.
